Assay results from patent US20020045208A1.

Molecular target: bFGF receptor molecules present on the surface of the B16 cells (mouse)
Test: cell-based or functional assay

## bFGF-MLA fusion protein (basic fibroblast growth factor fused to the N terminus of rMLA) (from UniProt P09038 134-288)
  cytotoxic activity on B16 cells (WST-1 viability), IC50: 0.048 µg/mL
  increase of toxicity against rMLA alone on B16 cells: > 100 fold

## bFGF-MLA/rMLB associated fusion protein (bFGF-MLA coupled to rMLB under co-folding) (from UniProt P09038 134-288)
  cytotoxic effect on B16 cells (MTT viability), IC50: 0.01 µg/mL
  improvement of the IC50 value on B16 cells against bFGF-MLA: 5 fold
